# Patent US20190119347A1 (HANMI PHARM, published 2019)
# Bridge positions count the residues as written; N and C are the ends. Square brackets hold non-standard residues; d marks the D form. Ends that are not written are not given here. Aib = CC(C)(N)C(=O)O
# Target: human glucagon receptor (human, UniProt P47871 26-477)
# Experiment: cell-based or functional assay
# Sequence of human glucagon receptor (P47871 26-477): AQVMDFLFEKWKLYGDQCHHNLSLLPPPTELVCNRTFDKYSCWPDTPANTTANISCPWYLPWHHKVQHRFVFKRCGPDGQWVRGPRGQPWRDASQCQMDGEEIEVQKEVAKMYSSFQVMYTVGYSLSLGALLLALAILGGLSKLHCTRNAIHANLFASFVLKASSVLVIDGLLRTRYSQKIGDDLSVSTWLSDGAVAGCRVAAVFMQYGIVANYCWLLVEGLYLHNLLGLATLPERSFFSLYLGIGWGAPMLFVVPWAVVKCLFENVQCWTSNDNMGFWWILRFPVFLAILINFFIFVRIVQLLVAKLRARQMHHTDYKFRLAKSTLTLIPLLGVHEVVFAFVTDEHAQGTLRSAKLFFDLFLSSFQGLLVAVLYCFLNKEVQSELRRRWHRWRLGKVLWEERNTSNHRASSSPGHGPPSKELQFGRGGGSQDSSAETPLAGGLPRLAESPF
binder,measurement,value
Y[Aib]QGTFTSDYSKYLDERRAKEFVQWLMNTC (lactam 16-20) [glucagon derivative of SEQ ID NO: 37],"In vitro Activity (Relative Activity to SEQ ID NO: 1, %); cAMP assay, from EC50",776%
